Data reported in article PMC8141644, “Design of a Trispecific Checkpoint Inhibitor and Natural Killer Cell Engager Based on a 2 + 1 Common Light Chain Antibody Architecture” (Frontiers in Immunology, 2021).
One block for each binder: values may come before it.

Legend:
PD-L1-ECD = biological target: T1, PD-L1-ECD (Homo sapiens (; durvalumab …, UniProt Q9NZQ7); assay: BLI; affinity determination as previously described (54); purified antibodies (loaded onto AHC biosensors, as told for the anti-CD16a variants), antigen in solution; Octet RED96, 30 °C, 1000 rpm; settings: both partners purified
T1 construct: also called His-tagged PD-L1; source: bought: R&D systems (His-tagged PD-L1)
T1 sequence (Q9NZQ7 19-238): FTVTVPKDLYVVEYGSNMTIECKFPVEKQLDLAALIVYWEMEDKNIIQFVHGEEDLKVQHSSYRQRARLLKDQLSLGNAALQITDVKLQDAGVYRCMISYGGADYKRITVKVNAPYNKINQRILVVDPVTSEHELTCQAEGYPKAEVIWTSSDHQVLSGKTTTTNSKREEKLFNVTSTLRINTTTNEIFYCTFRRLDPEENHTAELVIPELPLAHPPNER

EGFR-ECD [1] = biological target: T2, EGFR-ECD (UniProt P00533); assay: as above; settings: both partners purified
T2 construct: epidermal growth factor receptor (EGFR), extracellular domain (EGFR-ECD); With anti-human-Fc (AHC) sensors it was probably the His-tagged one; also called epidermal growth factor receptor extracellular domain

EGFR-ECD [2] = biological target: T2, EGFR-ECD; assay: BLI; sterile filtered Expi293F cell culture supernatants of the light chain variants paired with the parental FEB4 heavy chain; settings: one partner purified

- Kd (PD-L1-ECD): 3 nM
B1: ICI2 (antibody, V domains shown)
VH: AVTLDESGGGLQTPGGALSLVCKASGFDFSSYDMAWVRQAPGKGLEWVAGIKSNGPWTNYGAAVKGRATISRDNGQSTVRLQLNNLRAEDTAIYYCAKPGAGYVGWDAAGTIDSWGHGTEVIVSS
VL: ALTQPSSVSANPGETVKITCSGGGYDGSYYYGWYQQKSPGSAPVTVIYDNTNRPSNIPSRFSGSLSGSTNTLTITGVQAEDEAVYFCGGYDRSGGIFGGGTTLTVL
notes: VH of ICI2 (chicken-derived); IgG1 constant region (CH1, hinge, Fc) with the LALA mutation; as the light chain of m10 (dFEB1-VL common light chain); IgG1 LALA chimeric antibody; source: Expi293F, purified (Protein A chromatography); copies: 2 + 2

- Kd (EGFR-ECD [1]): 6.4 nM
- fold improvement in KD against the parental FEB4 (EGFR-ECD [1]): 5 fold
B2: dFEB4-1 (antibody, V domains shown)
VH: AVTLDESGGGLQTPGGALSLVCKASGFTFSSHGMLWVRQAPGKGLEFVAGISTDGSSTSYGAPVKGRATISRDNGQSTVRLQLNNLRAEDTGTYYCAKDAYRCRNCAEDIDAWGHGTEVIVSS
VL: ALTQPSSVSANPGETVKITCSGGGYDGSYYYGWYQQKSPGSAPVTVIYDNTNRPSNIPSRFSGSLSGSTNTLTITGVQAEDEAVYFCGGYDRSGGIFGGGTTLTVL
notes: as the heavy chain of m8 (parental FEB4 heavy chain); dFEB1-VL, chicken VL from the light chain shuffling; human lambda CL; IgG; also called parental FEB4 heavy chain with dFEB1-VL; source: Expi293F, co-transfected; sterile filtered culture supernatant, and purified (Protein A chromatography); copies: 2 + 2

- binding result (EGFR-ECD [2]): binds
B3: FEB4 (antibody, V domains shown)
VH: AVTLDESGGGLQTPGGALSLVCKASGFTFSSHGMLWVRQAPGKGLEFVAGISTDGSSTSYGAPVKGRATISRDNGQSTVRLQLNNLRAEDTGTYYCAKDAYRCRNCAEDIDAWGHGTEVIVSS
VL: ALTQPSSVSANPGETVKITCSGGYSDDGSYYYYGWFQQKSPGSAPVTVIYDNTNRPSNIPSRFSGSTSGSTSTLTITGVRAEDEAVYYCGSIDTGYAGIFGAGTTLTVL
notes: IgG1 constant region (CH1, hinge, Fc); standard IgG1 format; also called parental FEB4 mAb; parental antibody; copies: 2 + 2
